The source of these data is patent publication US20170334950.

In data set [1] the target is FLT3 Artificial Substrate (FAS) candidate sequence A.
In data set [2] the target is FLT3 Artificial Substrate (FAS) candidate sequence B.
Data set [3] has as its target FLT3 Artificial Substrate (FAS) candidate sequence C.
Data set [4] has as its target FLT3 Artificial Substrate (FAS) candidate sequence E.
For data set [5], the target named is FLT3 Artificial Substrate (FAS) candidate sequence F.
In data set [6] the target is FLT3 Artificial Substrate (FAS) candidate sequence G.
The target of data set [7] is FLT3 Artificial Substrate (FAS) candidate sequence H.
Data set [8] deals with FLT3 Artificial Substrate (FAS) candidate sequence D.

Changes are numbered by the printed parent chain. Numbers in names are those of the source.

B1: recombinant FLT3-D835Y mutant kinase (protein)
chain: HKYKKQFRYESQLQMVQVTGSSDNEYFYVDFREYEYDLKWEFPRENLEFGKVLGSGAFGKVMNATAYGISKTGVSIQVAVKMLKEKADSSEREALMSELKMMTQLGSHENIVNLLGACTLSGPIYLIFEYCCYGDLLNYLRSKREKFHRTWTEIFKEHNFSFYPTFQSHPNSSMPGSREVQIHPDSDQISGLHGNSFHSEDEIEYENQKRLEEEEDLNVLTFEDLLCFAYQVAKGMEFLEFKSCVHRDLAARNVLVTHGKVVKICDFGLARYIMSDSNYVVRGNARLPVKWMAPESLFEGIYTIKSDVWSYGILLWEIFSLGVNPYPGIPVDANFYKLIQNGFKMDQPFYATEEIYIIMQSCWAFDSRKRPSFPNLTSFLGCQLADAEEAMYQNVDGRVSECPHTYQNRRPFSREMDLGLLSPQAQVEDS
As for B1, the “phosphorylation, in vitro kinase assay” value in data set [1] is “Candidate sequences A, B, C displayed higher levels of phosphorylation by FLT3-D835Y compared to FL-Abltide”; in data set [2] it was “Candidate sequences A, B, C displayed higher levels of phosphorylation by FLT3-D835Y compared to FL-Abltide”; in data set [3], “Candidate sequences A, B, C displayed higher levels of phosphorylation by FLT3-D835Y compared to FL-Abltide”; in data set [4], “Sequences E, F and G were also phosphorylated by FLT3-D835Y but at lower levels than FL-Abltide”; in data set [5], “Sequences E, F and G were also phosphorylated by FLT3-D835Y but at lower levels than FL-Abltide”; in data set [6], “Sequences E, F and G were also phosphorylated by FLT3-D835Y but at lower levels than FL-Abltide”. In addition, the “phosphorylation, in vitro kinase assay” value in data set [7] is given as “sequence H showed no phosphorylation”.

B2: recombinant wild type FLT3 kinase (FLT3-WT) (protein)
chain: B1 chain with Y272D
Consider B2, for which the “phosphorylation, in vitro kinase assay, 60-minute incubation” value in data set [1] is “Sequence A showed a similar level of phosphorylation compared to Abltide over a 60-minute incubation”. Also, the “phosphorylation, in vitro kinase assay” value in data set [2], in data set [8], in data set [4], in data set [5], in data set [6] and in data set [7] was “The remaining sequences did not get phosphorylated by FLT3-WT” throughout.
